Experiment [1] addresses Artemia franciscana ferritin (Artemia franciscana). Briefly: native gel or EMSA.
The target is the same in experiment [2]. As to the kind of experiment: cryo-EM structure.

“Artemia franciscana ferritin (natural protein)”: the stoichiometry N in experiment [1] and in experiment [2] was 24 in each case.

Values taken from paper doi:10.1101/2025.08.13.669967.
